Results as given in US20240069033A1, “METHOD FOR SCREENING FOR CANDIDATE MOLECULE CAPABLE OF FORMING COMPLEX IN CONJUNCTION WITH PLURALITY OF TARGET MOLECULES” (Chugai Seiyaku Kabushiki Kaisha, priority 2020, published 2024).
No end group written: not given here. puromycin linker = puromycin spacer joining the C-terminus of the translated peptide to its mRNA (mRNA display); mRNA = not defined here

T1: biotinylated splitNanoluc1-8
T1 chain: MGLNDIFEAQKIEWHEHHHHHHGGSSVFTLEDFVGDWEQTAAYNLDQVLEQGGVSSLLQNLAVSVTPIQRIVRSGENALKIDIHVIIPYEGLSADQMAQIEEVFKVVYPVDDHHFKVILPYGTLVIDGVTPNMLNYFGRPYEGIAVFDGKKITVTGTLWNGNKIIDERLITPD


Columns and labels:
[1] = target: anti-ubiquitin antibody (Mouse IgG1 monoclonal antibody; clone name FK2); experiment: mRNA display pull-down on anti-ubiquitin antibody (FK2) magnetic beads, qPCR; corrected with the display efficiency
[2] = target: anti-ubiquitin antibody (Mouse IgG1 monoclonal antibody; clone name FK2); experiment: mRNA display pull-down on anti-ubiquitin antibody (FK2) magnetic beads, heat elution, qPCR
[3] = target: biotinylated GFP1-9; experiment: mRNA display pull-down with biotinylated GFP1-9, qPCR
[4] = target: biotinylated GFP1-9; experiment: mRNA display pull-down with biotinylated GFP1-9, qPCR; corrected with the display efficiency
[5] = target: biotinylated GFP1-9; experiment: mRNA display pull-down: 0.42 µM Display molecule with 1 µM biotinylated GFP1-9, streptavidin beads, TEV elution, qPCR
[6] = target: anti-ubiquitin antibody (Mouse IgG1 monoclonal antibody; clone name FK2); experiment: mRNA display pull-down on anti-ubiquitin antibody (FK2) magnetic beads, qPCR; display molecule at 0.4 µM
[7] = target: T1, biotinylated splitNanoluc1-8; experiment: mRNA display pull-down with biotinylated splitNanoluc1-8, qPCR; corrected with the display efficiency
[8] = target: T1, biotinylated splitNanoluc1-8; experiment: mRNA display pull-down: 33 nM Display molecule with 1 µM biotinylated splitNanoluc1-8, streptavidin beads, TEV elution, qPCR

| Binder | Recovery rate (%) [1] | fold lower recovery rate than the GFP10-11 fusion peptide [3] | Recovery rate (%) [4] | Apparent recovery rate (%) [5] | Recovered nucleic acid amount (molecules) [5] | other results |
| --- | --- | --- | --- | --- | --- | --- |
| MMQIFVKTLTGKTATLEVEPSDTIENVKAKIQDKEGIPGSGSGSGSKK-{puromycin linker-mRNA} (reading uncertain; also: mRNA reverse transcribed before assay) [splitUb(N)] | 1.04% | – | – | – | – | Apparent recovery rate (%) [2]: 0.931%; Recovered nucleic acid amount (molecules) [2]: 1.63e+10 molecules |
| MDLPDDHYLSTQTILLKDLNGSGSGSGSKK (modifications not checked) [GFP10] | – | 1000 times | 0.028% | 0.0237% | 2.32e+08 molecules | – |
| MGSMLFRVTINSGGGSGGGGSGVSGWRLFKKISGSGSGSGSENLYFQGKK (modifications not checked) [splitNanoluc9-10 fusion peptide] | – | – | – | – | – | Recovery rate (%) [7]: 33.2%; Apparent recovery rate (%) [8]: 12.6%; Recovered nucleic acid amount (molecules) [8]: 3.45e+09 molecules |

Second part, led by results:

| Recovery rate (%) [1] | fold lower recovery rate than the GFP10-11 fusion peptide [3] | Recovery rate (%) [4] | Apparent recovery rate (%) [5] | Recovered nucleic acid amount (molecules) [5] | Binder | other results |
| --- | --- | --- | --- | --- | --- | --- |
| 0.0004% | – | – | – | – | Epep-splitUb(N) (protein, C-terminus joined through a puromycin linker to its own mRNA (reverse transcribed before the assay)) MKVSALENEVSALEKEVSVLEKEVSALEKEVRALEKGSGSGSGSMQIFVKTLTGKTATLEVEPSDTIENVKAKIQDKEGIPGSGSGSGSKK | Apparent recovery rate (%) [6]: 0.0001%; Recovered nucleic acid amount (molecules) [6]: 377000 molecules |
| – | 1000 times | 0.012% | 0.0109% | 8.95e+07 molecules | MEKRDHMVLLEYVTAAGITDASGSGSGSGSKK (modifications not checked) [GFP11] | – |
